Test results from the RNAGym collection of RNA variant scans (doi:10.1073/pnas.2313332121).

B1: TPR t1 (parent)
chain: GACCAAUCUGCCCUCAGAGCUCGAGAACAUCUUCGGAUGCAGAGGAGGCAGGCUUCGGUGGCGCGAUAGCGCCAACGUCCUCAACCUCCAAUGCAUCCCACCACAUGAUGAUGCCUGAAGAGCCUUGGUUUUUUG

Variants of: B1
Assay: polymerase ribozyme fitness, log enrichment relative to wild type (log ratio); higher = more active; in vitro selection for triplet polymerase activity
Method in brief: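 PCR was used to build mutant libraries for each subunit of a heterodimeric triplet polymerase ribozyme, which were then transcribed. A single in vitro selection round, in triplicate, used a frozen incubation at −7 °C and recovered extended constructs by gel excision, streptavidin beads and RT-PCR. Fitness is the logarithm of genotype enrichment relative to wild-type enrichment, averaged over replicates with inverse-variance weights. The logarithm is base 2, and after Illumina sequencing only genotypes with ≥10 input reads and ≥1 read per output were kept.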
In the case of A18C G58C, the “polymerase ribozyme fitness (log ratio)” value is reported as -2.1.
In the case of A18C G60A U78G G110C U131A, the “polymerase ribozyme fitness (log ratio)” value is reported as -7.27.
For A18C G60C, the “polymerase ribozyme fitness (log ratio)” value was -2.9.
For A18C G61A A108U C115U C123U, the “polymerase ribozyme fitness (log ratio)” value was -6.75.
For A18C G63C C88U C97G C102U C123U, the “polymerase ribozyme fitness (log ratio)” value was -6.68.
With A18C G63U the “polymerase ribozyme fitness (log ratio)” value was -4.53.
With A18C G69A the “polymerase ribozyme fitness (log ratio)” value was -6.17.
With A18C G69U the “polymerase ribozyme fitness (log ratio)” value was -0.162.
In the case of A18C G71C, the “polymerase ribozyme fitness (log ratio)” value is reported as -4.19.
With A18C G93C the “polymerase ribozyme fitness (log ratio)” value was -3.24.
With A18C G117C the “polymerase ribozyme fitness (log ratio)” value was -4.33.
For A18C U32C, the “polymerase ribozyme fitness (log ratio)” value was -2.05.
With A18C U78A U112G G122U the “polymerase ribozyme fitness (log ratio)” value was -4.43.
In the case of A18C U92G, the “polymerase ribozyme fitness (log ratio)” value is reported as -2.86.
For A18C U112C, the “polymerase ribozyme fitness (log ratio)” value was -0.328.
For A18G A74C C97A U106A, the “polymerase ribozyme fitness (log ratio)” value was -6.31.
With A18G C22G C104A the “polymerase ribozyme fitness (log ratio)” value was -5.54.
With A18G C28A U112A the “polymerase ribozyme fitness (log ratio)” value was -4.92.
In the case of A18G C34A, the “polymerase ribozyme fitness (log ratio)” value is reported as -5.57.
With A18G C62U A74C the “polymerase ribozyme fitness (log ratio)” value was -5.71.
For A18G C70A A91C G113A, the “polymerase ribozyme fitness (log ratio)” value was -2.9.
In the case of A18G C70U, the “polymerase ribozyme fitness (log ratio)” value is reported as -2.4.
In the case of A18G C70U A95U C124A, the “polymerase ribozyme fitness (log ratio)” value is reported as -4.13.
In the case of A18G C101G G117C, the “polymerase ribozyme fitness (log ratio)” value is reported as -4.66.
With A18G G19A the “polymerase ribozyme fitness (log ratio)” value was -1.4.
For A18G G19A U96C C115A, the “polymerase ribozyme fitness (log ratio)” value was -4.42.
For A18G G19C C53U A111U, the “polymerase ribozyme fitness (log ratio)” value was -4.72.
With A18G G19U A46C C56A U87A the “polymerase ribozyme fitness (log ratio)” value was -2.82.
With A18G G23A C53U U59C C79A G117C U133C the “polymerase ribozyme fitness (log ratio)” value was -5.37.
With A18G G36A G61A U116C A118G the “polymerase ribozyme fitness (log ratio)” value was -3.23.
In the case of A18G G39A C64A A90G G120C, the “polymerase ribozyme fitness (log ratio)” value is reported as -5.87.
In the case of A18G G39U, the “polymerase ribozyme fitness (log ratio)” value is reported as -3.93.
With A18G G48A G63A G77A U81C A121U U126G the “polymerase ribozyme fitness (log ratio)” value was -5.32.
With A18G G52C the “polymerase ribozyme fitness (log ratio)” value was -3.49.
For A18G U54A C88G A111C G113C U125A, the “polymerase ribozyme fitness (log ratio)” value was -3.51.
For A18G U54A G77A U109G, the “polymerase ribozyme fitness (log ratio)” value was -3.13.
For A18G U78C, the “polymerase ribozyme fitness (log ratio)” value was -2.98.
For A18G U129C, the “polymerase ribozyme fitness (log ratio)” value was -4.73.
In the case of A18G U130G, the “polymerase ribozyme fitness (log ratio)” value is reported as -4.25.
For A18U A24G C72U C73U, the “polymerase ribozyme fitness (log ratio)” value was -4.35.
With A18U A26C C62U G120C U126G the “polymerase ribozyme fitness (log ratio)” value was -7.02.
For A18U A26G C56U C123G, the “polymerase ribozyme fitness (log ratio)” value was -0.0936.
With A18U A29G C56A C80A the “polymerase ribozyme fitness (log ratio)” value was -6.14.
With A18U A29U U54G U78C C89G C114G the “polymerase ribozyme fitness (log ratio)” value was -3.24.
With A18U A46G G52A A118U the “polymerase ribozyme fitness (log ratio)” value was -2.9.
With A18U A46U C97U A103U G120U C123G the “polymerase ribozyme fitness (log ratio)” value was -6.88.
With A18U A50U C99G A100C A108U C124G the “polymerase ribozyme fitness (log ratio)” value was -8.04.
In the case of A18U A66C, the “polymerase ribozyme fitness (log ratio)” value is reported as -4.55.
For A18U A68G U81A C123U, the “polymerase ribozyme fitness (log ratio)” value was -5.83.
For A18U A74U, the “polymerase ribozyme fitness (log ratio)” value was -3.3.
For A18U A75U C76G U129G, the “polymerase ribozyme fitness (log ratio)” value was -5.7.
With A18U A111G U129A the “polymerase ribozyme fitness (log ratio)” value was -4.75.
With A18U C31U the “polymerase ribozyme fitness (log ratio)” value was -5.66.
With A18U C40G the “polymerase ribozyme fitness (log ratio)” value was -4.04.
With A18U C40G A83U the “polymerase ribozyme fitness (log ratio)” value was -4.16.
In the case of A18U C49G A91G, the “polymerase ribozyme fitness (log ratio)” value is reported as -3.84.
With A18U C49U A68U U92A U96A G110C the “polymerase ribozyme fitness (log ratio)” value was -7.53.
In the case of A18U C62A, the “polymerase ribozyme fitness (log ratio)” value is reported as -4.11.
With A18U C70U U112C the “polymerase ribozyme fitness (log ratio)” value was -1.2.
In the case of A18U C72G U130A, the “polymerase ribozyme fitness (log ratio)” value is reported as -4.54.
With A18U C73G A100U G113A G128A the “polymerase ribozyme fitness (log ratio)” value was -5.47.
For A18U C76A G93C, the “polymerase ribozyme fitness (log ratio)” value was -4.09.
With A18U C79U C101G the “polymerase ribozyme fitness (log ratio)” value was -4.83.
With A18U C89A U133A the “polymerase ribozyme fitness (log ratio)” value was -2.21.
For A18U C114U, the “polymerase ribozyme fitness (log ratio)” value was -3.74.
With A18U G36A A50G the “polymerase ribozyme fitness (log ratio)” value was -3.46.
For A18U G36U U59C C97G, the “polymerase ribozyme fitness (log ratio)” value was -4.79.
With A18U G39A U54A C70A C124U G127A the “polymerase ribozyme fitness (log ratio)” value was -4.66.
For A18U G39U C73U C85G, the “polymerase ribozyme fitness (log ratio)” value was -4.26.
With A18U G39U G61U C97U U130A the “polymerase ribozyme fitness (log ratio)” value was -4.49.
With A18U G42C A50U the “polymerase ribozyme fitness (log ratio)” value was -3.92.
For A18U G42U, the “polymerase ribozyme fitness (log ratio)” value was -2.23.
For A18U G42U G69A A100U C114A G128U, the “polymerase ribozyme fitness (log ratio)” value was -7.14.
In the case of A18U G44A U54A C86U U106A, the “polymerase ribozyme fitness (log ratio)” value is reported as -5.25.
For A18U G45C G57C G69U, the “polymerase ribozyme fitness (log ratio)” value was -1.15.
In the case of A18U G48C C49A, the “polymerase ribozyme fitness (log ratio)” value is reported as -3.25.
For A18U G57U A100C G120C, the “polymerase ribozyme fitness (log ratio)” value was -5.42.
In the case of A18U G60U, the “polymerase ribozyme fitness (log ratio)” value is reported as -1.19.
For A18U G61C G120A, the “polymerase ribozyme fitness (log ratio)” value was -4.67.
In the case of A18U G63A G110U, the “polymerase ribozyme fitness (log ratio)” value is reported as -6.24.
In the case of A18U G69C C85A C89G, the “polymerase ribozyme fitness (log ratio)” value is reported as -6.03.
In the case of A18U G69U, the “polymerase ribozyme fitness (log ratio)” value is reported as -0.112.
For A18U G71A, the “polymerase ribozyme fitness (log ratio)” value was -2.85.
